This is an account of results in PMC5566547, “Nei-like 1 (NEIL1) excises 5-carboxylcytosine directly and stimulates TDG-mediated 5-formyl and 5-carboxylcytosine excision”.

The target of this data set is NEIL1 P2T (human, UniProt Q96FI4 1-390, P2T). Kind of data set: EMSA; EMSA: 25 mM Tris-HCl pH 7.5, 100 mM NaCl, 1 mM DTT, 10 nM DNA, 1-200 nM NEIL1 P2T, on ice 30 min; 6% native PAGE, 0.5x TBE, 4 C. The note with it: protein: recombinant; tags: C-terminal His6; label: 5'-32P top strand; blunt.
Sequence of NEIL1 P2T (Q96FI4 whole entry P2T): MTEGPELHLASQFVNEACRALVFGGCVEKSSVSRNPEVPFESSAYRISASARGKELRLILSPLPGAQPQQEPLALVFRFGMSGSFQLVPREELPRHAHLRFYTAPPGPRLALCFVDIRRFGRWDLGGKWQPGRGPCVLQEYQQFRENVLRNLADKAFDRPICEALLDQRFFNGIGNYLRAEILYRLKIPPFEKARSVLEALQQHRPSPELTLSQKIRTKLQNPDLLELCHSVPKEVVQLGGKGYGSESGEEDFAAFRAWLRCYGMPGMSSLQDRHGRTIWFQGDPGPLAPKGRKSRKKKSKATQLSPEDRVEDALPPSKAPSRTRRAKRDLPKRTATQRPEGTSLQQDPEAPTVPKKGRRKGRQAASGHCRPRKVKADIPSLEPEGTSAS

B1: 41-mer 5caC:G (dsDNA)
DNA 1: GCTACCTACCTAGCAGGGGCCAGCTGTCCCACTGCTCGGAA
DNA 2: TTCCGAGCAGTGGGACAGCTGGCCCCTGCTAGGTAGGTAGC
modifications: 5-carboxylcytosine at position 20 of top strand
For B1, the binding result was “binds”.

B2: 41-mer 5OHC:G (dsDNA)
DNA 1: GCTACCTACCTAGCAGGGGCCAGCTGTCCCACTGCTCGGAA
DNA 2: TTCCGAGCAGTGGGACAGCTGGCCCCTGCTAGGTAGGTAGC
modifications: 5-hydroxycytosine at position 20 of top strand
For B2, the binding result was “binds”.
